# Test results from article PMC9054013, “FCHO controls AP2’s initiating role in endocytosis through a PtdIns(4,5)P2-dependent switch” (Science Advances, 2022).
# What was measured:
# [1] = target: GST-TGN38 (pGEX4T2 linker TGN38); experiment: BLI; GST-TGN38 loaded on anti-GST biosensors; AP2 core (3.3 to 0.1 μM) or AP2 FCHO2 chimera (2.6 to 0.9 μM) in solution; physiological buffer; association 20 min, dissociation 25 min
# [2] = target: Cμ2 (μ2 residues 160 to 435) (UniProt P84092); experiment: ITC; Cμ2 with FCHO2 constructs or peptides; 100 mM tris pH 7.4, 150 mM NaCl, 0.25 mM TCEP; 12°C; Nano ITC
# Chain of Cμ2 (μ2 residues 160 to 435) (P84092 160-435): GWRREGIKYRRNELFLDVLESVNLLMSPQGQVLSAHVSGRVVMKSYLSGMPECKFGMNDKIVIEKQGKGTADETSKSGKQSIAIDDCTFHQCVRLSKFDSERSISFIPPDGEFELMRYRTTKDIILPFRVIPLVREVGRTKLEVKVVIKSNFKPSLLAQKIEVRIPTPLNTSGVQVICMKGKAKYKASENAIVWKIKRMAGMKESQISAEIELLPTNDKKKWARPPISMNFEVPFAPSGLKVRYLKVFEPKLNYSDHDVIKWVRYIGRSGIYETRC
# [3] = target: GST-FCHO2 linker wt (residues 314 to 444) (human) (UniProt Q0JRZ9); experiment: BLI; GST-FCHO1 or GST-FCHO2 linker loaded on anti-GST biosensors, blocked with GST-ARRS control; AP2 core in solution (twofold dilutions, 13.5 to 0.8 and 10.0 to 0.2 μM); 25°C; 0.1% NP-40, BSA 1 mg/ml; equilibrium analysis; near-physiological conditions
# Chain of GST-FCHO2 linker wt (residues 314 to 444) (human) (Q0JRZ9 314-444): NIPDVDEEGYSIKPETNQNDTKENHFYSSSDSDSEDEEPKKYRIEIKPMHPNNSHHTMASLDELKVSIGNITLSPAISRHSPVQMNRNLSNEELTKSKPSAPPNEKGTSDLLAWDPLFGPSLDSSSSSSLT
# [4] = target: GST-FCHO1 linker wt (N123C) (residues 316 to 444) (human) (UniProt O14526); experiment: as above
# Chain of GST-FCHO1 linker wt (N123C) (residues 316 to 444) (human) (O14526 316-444, stated change not applied): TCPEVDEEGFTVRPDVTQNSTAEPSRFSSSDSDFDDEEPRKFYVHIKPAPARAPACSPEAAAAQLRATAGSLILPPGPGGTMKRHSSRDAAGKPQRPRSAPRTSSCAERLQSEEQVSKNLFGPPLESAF
# [5] = target: AP2 α-appendage (residues 695 to 938) (UniProt P17427); experiment: ITC; α-appendage or β2-appendage with C block peptides; 100 mM tris pH 7.4, 150 mM NaCl, 0.25 mM TCEP; 12°C; peptides 1 to 5 mM titrated
# Chain of AP2 α-appendage (residues 695 to 938) (P17427 695-938): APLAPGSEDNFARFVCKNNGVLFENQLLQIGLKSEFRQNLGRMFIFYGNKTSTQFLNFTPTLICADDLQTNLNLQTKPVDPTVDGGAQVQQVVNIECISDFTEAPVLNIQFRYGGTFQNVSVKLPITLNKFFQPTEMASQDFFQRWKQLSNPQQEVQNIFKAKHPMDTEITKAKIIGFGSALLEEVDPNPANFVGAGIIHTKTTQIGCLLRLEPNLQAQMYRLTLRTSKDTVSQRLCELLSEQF
# Chain of GST-TGN38 (pGEX4T2 linker TGN38) (Q9UJY5 other isoform, or with tags, fused parts or gaps): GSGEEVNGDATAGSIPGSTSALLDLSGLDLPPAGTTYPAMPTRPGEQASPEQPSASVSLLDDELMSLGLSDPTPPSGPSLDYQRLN
substance,measurement,setting,value
AP2:μ2FCHO2-N1+N2+N3 chimeric AP2 core (from UniProt P62743 1-142; P63010 1-591; Q0JRZ9-1 314-444) (complex),fold tighter binding than AP2 core,[1],3 fold
FCHO2 N1 alone (ITC) (from UniProt Q0JRZ9-1 314-340) (domain or fragment),fold reduction of binding against N1+N2,[2],5 fold
FCHO2-N1+N2 (ITC) (from UniProt Q0JRZ9-1 314-356) (domain or fragment),Kd,[2],25 µM
AP2 core (recombinant) (from UniProt P63010 1-591; P84092 1-435; P62743 1-142) (complex),Kd,[3],9.8 µM
same,Kd,[4],8.5 µM
FCHO1 C peptide (residues 426 to 448),Kd,[5],50 µM
